Assay results as given in patent US20180155451A1 (published 2018).

B1: GpH7-A5/GpH7-B3-01-15Y/GpL16-k0 (antibody, human IgG1, kappa)
heavy 1: not shown
heavy 2: not shown
light: DIVMTQSPLSLPVTPGEPASISCQASESLVHSNRNTYLHWYLQKPGQSPQLLIYKVSNRFSGVPDRFSGSGSGTDFTLKISRVEAEDVGVYYCSQNTHVPPTFGQGTKVEIERTVAAPSVFIFPPSDEQLKSGTASVVCLLNNFYPREAKVQWKVDNALQSGNSQESVTEQDSKDSTYSLSSTLTLSKADYEKHKVYACEVTHQGLSSPVTKSFNRGEC
notes: also called He Ab L234_15Y; GpH7-A5/GpH7-B3 variant L234_15Y/GpL16-k0
B2: GpH7-A5/GpH7-B3-03-20W/GpL16-k0 (antibody, human IgG1, kappa)
heavy 1: not shown
heavy 2: not shown
light: DIVMTQSPLSLPVTPGEPASISCQASESLVHSNRNTYLHWYLQKPGQSPQLLIYKVSNRFSGVPDRFSGSGSGTDFTLKISRVEAEDVGVYYCSQNTHVPPTFGQGTKVEIERTVAAPSVFIFPPSDEQLKSGTASVVCLLNNFYPREAKVQWKVDNALQSGNSQESVTEQDSKDSTYSLSSTLTLSKADYEKHKVYACEVTHQGLSSPVTKSFNRGEC
notes: also called He Ab G236_20W; GpH7-A5/GpH7-B3 variant G236_20W/GpL16-k0
B3: GpH7-A5/GpH7-B3-15-02A/GpL16-k0 (antibody, human IgG1, kappa)
heavy 1: not shown
heavy 2: not shown
light: DIVMTQSPLSLPVTPGEPASISCQASESLVHSNRNTYLHWYLQKPGQSPQLLIYKVSNRFSGVPDRFSGSGSGTDFTLKISRVEAEDVGVYYCSQNTHVPPTFGQGTKVEIERTVAAPSVFIFPPSDEQLKSGTASVVCLLNNFYPREAKVQWKVDNALQSGNSQESVTEQDSKDSTYSLSSTLTLSKADYEKHKVYACEVTHQGLSSPVTKSFNRGEC
notes: H2 S298A
B4: GpH7-A5/GpH7-B16/GpL16-k0 (antibody, human IgG1, kappa)
heavy 1: not shown
heavy 2: not shown
light: DIVMTQSPLSLPVTPGEPASISCQASESLVHSNRNTYLHWYLQKPGQSPQLLIYKVSNRFSGVPDRFSGSGSGTDFTLKISRVEAEDVGVYYCSQNTHVPPTFGQGTKVEIERTVAAPSVFIFPPSDEQLKSGTASVVCLLNNFYPREAKVQWKVDNALQSGNSQESVTEQDSKDSTYSLSSTLTLSKADYEKHKVYACEVTHQGLSSPVTKSFNRGEC
notes: also called He Ab L234_10E; GpH7-A5/GpH7-B3 variant L234_10E/GpL16-k0
B5: GpH7-A5/GpH7-B17/GpL16-k0 (antibody, human IgG1, kappa)
heavy 1: not shown
heavy 2: not shown
light: DIVMTQSPLSLPVTPGEPASISCQASESLVHSNRNTYLHWYLQKPGQSPQLLIYKVSNRFSGVPDRFSGSGSGTDFTLKISRVEAEDVGVYYCSQNTHVPPTFGQGTKVEIERTVAAPSVFIFPPSDEQLKSGTASVVCLLNNFYPREAKVQWKVDNALQSGNSQESVTEQDSKDSTYSLSSTLTLSKADYEKHKVYACEVTHQGLSSPVTKSFNRGEC
notes: also called He Ab L234_09D; GpH7-A5/GpH7-B3 variant L234_09D/GpL16-k0
B6: GpH7-TA1/GpH7-B3-15-02A/GpL16-k0 (antibody, human IgG1, kappa)
heavy 1: QVQLVQSGAEVKKPGASVTVSCKASGYTFTDYEMHWIRQPPGEGLEWIGAIDPKTGDTAYSESFQDRVTLTADKSTSTAYMELSSLTSEDTAVYYCTRFYSYTYWGQGTLVTVSSASTKGPSVFPLAPSSKSTSGGTAALGCLVKDYFPEPVTVSWNSGALTSGVHTFPAVLQSSGLYSLSSVVTVPSSSLGTQTYICNVNHKPSNTKVDKKVEPKSCDKTHTCPPCPAPEYLGGPSVFLFPPKPKDTLMISRTPEVTCVVVDVSHEDPEVKFNWYVDGVEVHNAKTKPREEQYNSTYRVVSVLTVLHQDWLNGKEYKCKVSNKALPAPIEKTISKAKGQPREPQVYTLPPSRKELTKNQVSLTCLVKGFYPSDIAVEWESNGQPENNYKTTPPVLDSDGSFFLYSKLTVDKSRWQQGNVFSCSVMHEALHNRYTQKSLSLSP
heavy 2: not shown
light: DIVMTQSPLSLPVTPGEPASISCQASESLVHSNRNTYLHWYLQKPGQSPQLLIYKVSNRFSGVPDRFSGSGSGTDFTLKISRVEAEDVGVYYCSQNTHVPPTFGQGTKVEIERTVAAPSVFIFPPSDEQLKSGTASVVCLLNNFYPREAKVQWKVDNALQSGNSQESVTEQDSKDSTYSLSSTLTLSKADYEKHKVYACEVTHQGLSSPVTKSFNRGEC
notes: H1 L234Y; H2 S298A
B7: GpH7-TA2/GpH7-B3-01-15Y/GpL16-k0 (antibody, human IgG1, kappa)
heavy 1: QVQLVQSGAEVKKPGASVTVSCKASGYTFTDYEMHWIRQPPGEGLEWIGAIDPKTGDTAYSESFQDRVTLTADKSTSTAYMELSSLTSEDTAVYYCTRFYSYTYWGQGTLVTVSSASTKGPSVFPLAPSSKSTSGGTAALGCLVKDYFPEPVTVSWNSGALTSGVHTFPAVLQSSGLYSLSSVVTVPSSSLGTQTYICNVNHKPSNTKVDKKVEPKSCDKTHTCPPCPAPELLWGPSVFLFPPKPKDTLMISRTPEVTCVVVDVSHEDPEVKFNWYVDGVEVHNAKTKPREEQYNSTYRVVSVLTVLHQDWLNGKEYKCKVSNKALPAPIEKTISKAKGQPREPQVYTLPPSRKELTKNQVSLTCLVKGFYPSDIAVEWESNGQPENNYKTTPPVLDSDGSFFLYSKLTVDKSRWQQGNVFSCSVMHEALHNRYTQKSLSLSP
heavy 2: not shown
light: DIVMTQSPLSLPVTPGEPASISCQASESLVHSNRNTYLHWYLQKPGQSPQLLIYKVSNRFSGVPDRFSGSGSGTDFTLKISRVEAEDVGVYYCSQNTHVPPTFGQGTKVEIERTVAAPSVFIFPPSDEQLKSGTASVVCLLNNFYPREAKVQWKVDNALQSGNSQESVTEQDSKDSTYSLSSTLTLSKADYEKHKVYACEVTHQGLSSPVTKSFNRGEC
notes: H1 G236W; H2 L234Y
B8: GpH7-TA3/GpH7-B3-03-20W/GpL16-k0 (antibody, human IgG1, kappa)
heavy 1: QVQLVQSGAEVKKPGASVTVSCKASGYTFTDYEMHWIRQPPGEGLEWIGAIDPKTGDTAYSESFQDRVTLTADKSTSTAYMELSSLTSEDTAVYYCTRFYSYTYWGQGTLVTVSSASTKGPSVFPLAPSSKSTSGGTAALGCLVKDYFPEPVTVSWNSGALTSGVHTFPAVLQSSGLYSLSSVVTVPSSSLGTQTYICNVNHKPSNTKVDKKVEPKSCDKTHTCPPCPAPELLGGPSVFLFPPKPKDTLMISRTPEVTCVVVDVSHEDPEVKFNWYVDGVEVHNAKTKPREEQYNATYRVVSVLTVLHQDWLNGKEYKCKVSNKALPAPIEKTISKAKGQPREPQVYTLPPSRKELTKNQVSLTCLVKGFYPSDIAVEWESNGQPENNYKTTPPVLDSDGSFFLYSKLTVDKSRWQQGNVFSCSVMHEALHNRYTQKSLSLSP
heavy 2: not shown
light: DIVMTQSPLSLPVTPGEPASISCQASESLVHSNRNTYLHWYLQKPGQSPQLLIYKVSNRFSGVPDRFSGSGSGTDFTLKISRVEAEDVGVYYCSQNTHVPPTFGQGTKVEIERTVAAPSVFIFPPSDEQLKSGTASVVCLLNNFYPREAKVQWKVDNALQSGNSQESVTEQDSKDSTYSLSSTLTLSKADYEKHKVYACEVTHQGLSSPVTKSFNRGEC
notes: H1 S298A; H2 G236W
B9: GpH7-TA4/GpH7-B3-15-02A/GpL16-k0 (antibody, human IgG1, kappa)
heavy 1: QVQLVQSGAEVKKPGASVTVSCKASGYTFTDYEMHWIRQPPGEGLEWIGAIDPKTGDTAYSESFQDRVTLTADKSTSTAYMELSSLTSEDTAVYYCTRFYSYTYWGQGTLVTVSSASTKGPSVFPLAPSSKSTSGGTAALGCLVKDYFPEPVTVSWNSGALTSGVHTFPAVLQSSGLYSLSSVVTVPSSSLGTQTYICNVNHKPSNTKVDKKVEPKSCDKTHTCPPCPAPEYLWGPSVFLFPPKPKDTLMISRTPEVTCVVVDVSHEDPEVKFNWYVDGVEVHNAKTKPREEQYNSTYRVVSVLTVLHQDWLNGKEYKCKVSNKALPAPIEKTISKAKGQPREPQVYTLPPSRKELTKNQVSLTCLVKGFYPSDIAVEWESNGQPENNYKTTPPVLDSDGSFFLYSKLTVDKSRWQQGNVFSCSVMHEALHNRYTQKSLSLSP
heavy 2: not shown
light: DIVMTQSPLSLPVTPGEPASISCQASESLVHSNRNTYLHWYLQKPGQSPQLLIYKVSNRFSGVPDRFSGSGSGTDFTLKISRVEAEDVGVYYCSQNTHVPPTFGQGTKVEIERTVAAPSVFIFPPSDEQLKSGTASVVCLLNNFYPREAKVQWKVDNALQSGNSQESVTEQDSKDSTYSLSSTLTLSKADYEKHKVYACEVTHQGLSSPVTKSFNRGEC
notes: H1 L234Y and G236W; H2 S298A

These binders were tested against T1, FcγRIIIa extracellular domain with C-terminal His tag (human, UniProt P08637 17-208) (assay: SPR relative binding; GpH7-A5/GpH7-B3/GpL16-k0 = 100).
T1 construct: extracellular domain; also called FcgRIIIa; 3a; not shown: His tag at the C terminus
Summary of the method: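 Antibodies were captured on antigen-peptide chips (amine-coupled CM5 or biotinylated peptide on SA) and each FcγR, diluted in HBS-EP+, was injected at 25° C. Chips were regenerated with 10 mM glycine-HCl, pH 1.5. FcγR-binding activity and dissociation constant served as indicators.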

T1 sequence (P08637 17-208): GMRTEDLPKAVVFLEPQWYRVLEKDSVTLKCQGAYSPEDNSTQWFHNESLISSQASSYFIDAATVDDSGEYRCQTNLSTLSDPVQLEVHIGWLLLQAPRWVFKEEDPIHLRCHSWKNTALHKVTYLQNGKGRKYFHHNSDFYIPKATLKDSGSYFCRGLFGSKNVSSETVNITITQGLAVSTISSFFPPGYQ

| Binder | FcγRIIIa BINDING ACTIVITY | He/Con_3a |
| --- | --- | --- |
| B1 | 131 % of control | 130 % of control |
| B2 | 140 % of control | 135 % of control |
| B3 | 163 % of control |  |
| B4 |  | 114 % of control |
| B5 |  | 117 % of control |
| B6 | 142 % of control |  |
| B7 | 130 % of control |  |
| B8 | 70 % of control |  |
| B9 | 151 % of control |  |
